Measurements from patent US20050226876A1 (Hoffmann-La Roche, published 2005).

Biological target: T1, Recombinant P-selectin (R&D Systems) (human, UniProt P16109 42-771)
T1 construct: extracellular domain; also called recombinant human P-selectin; recombinant truncated form of P-selectin
T1 sequence (looked up): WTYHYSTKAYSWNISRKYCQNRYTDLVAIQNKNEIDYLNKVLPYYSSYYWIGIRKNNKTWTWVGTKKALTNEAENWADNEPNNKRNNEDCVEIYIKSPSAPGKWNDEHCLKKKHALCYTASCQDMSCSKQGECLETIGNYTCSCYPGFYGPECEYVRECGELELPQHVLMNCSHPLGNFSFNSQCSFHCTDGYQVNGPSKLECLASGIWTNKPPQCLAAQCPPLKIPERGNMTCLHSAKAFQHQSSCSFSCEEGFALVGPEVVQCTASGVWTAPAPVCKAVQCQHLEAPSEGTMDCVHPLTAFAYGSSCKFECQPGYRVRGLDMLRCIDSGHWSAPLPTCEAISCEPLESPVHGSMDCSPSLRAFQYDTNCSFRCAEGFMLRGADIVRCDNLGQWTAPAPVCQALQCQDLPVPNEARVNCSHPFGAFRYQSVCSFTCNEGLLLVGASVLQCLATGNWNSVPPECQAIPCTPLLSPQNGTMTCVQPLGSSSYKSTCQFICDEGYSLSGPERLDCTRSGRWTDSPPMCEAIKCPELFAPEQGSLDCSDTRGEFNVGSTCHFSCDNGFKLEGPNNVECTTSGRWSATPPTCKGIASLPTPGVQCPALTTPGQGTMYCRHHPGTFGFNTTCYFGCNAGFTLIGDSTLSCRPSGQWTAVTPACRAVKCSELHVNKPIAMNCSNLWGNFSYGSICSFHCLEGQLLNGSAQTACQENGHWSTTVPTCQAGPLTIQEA
Experiment: SPR, BIACORE 2000; antibody captured by anti-human Fcγ, recombinant P-selectin 0-50 nM injected; 1:1 Langmuir fit
Description: Recombinant P-selectin (R&D Systems) was added in various concentrations between 0-50 nM. Association was measured by P-selectin-injection for 120 seconds; dissociation was measured by washing the chip surface with buffer for 180 seconds. Using Biaevaluation Software the kinetic data were fitted to a 1:1 Langmuir binding model of P-selectin to the presented monoclonal antibody.

Binder	Ka	Kd	koff	kon
HuMab 001 (antibody of cell line hu-Mab<P-selectin>LC 1004-001, DSM ACC2640) (antibody, V domains shown, Human monoclonal antibody from transgenic mice; kappa light and gamma1 heavy chains by the cloning section; also called antibody 001; HuMab 1004-001) VH: EVQLVESGGGLVQPGGSLRLSCAASGFTFSSYDMHWVRQATGKGLEWVSGITTAGDTYYPGSVKGRFTISRENAKNSLYLQMNSLRAGDTAVYYCARGRISMDRGVKNNWFDPWGQGTLVTVSS VL: EIVLTQSPATLSLSPGERATLSCRASQSVSSYLAWYQQKPGQAPRLLIYDASNRATGIPARFSGSGSGTDFTLTISSLEPEDFAVYYCQQRNNWPLTFGGGTKVEIK	1.45e+09 M⁻¹	0.689 nM	0.000419 s⁻¹	608000 M⁻¹ s⁻¹
HuMab 003 (antibody, V domains shown, Human monoclonal antibody; also called antibody 003; LC 1004-003) VH: QVQLVESGGGVVQPGRSLRLSCAASGFTFSSYGMHWVRQAPGEGLEWVAVIWYDGTFKYYADSVKGRFTISRDNSKNTLSLLMNSLRAEDTAVYYCTRGGYYGSGSSFDYYYYGMDVWGQGTTVTVSS VL: DIQMTQSPSSLSASVGDRVTITCRASQGISSWLAWYQQKPEKAPKSLIYAASSLQSGVPSRFSGSGSGTDFTLTISSLQPEDFATYYCQQYHSYPLTFGGGTKVEIK	2.27e+09 M⁻¹	0.441 nM	0.000291 s⁻¹	660000 M⁻¹ s⁻¹
HuMab 005 (antibody, V domains shown, Human monoclonal antibody; also called antibody 005) VH: QVQLVESGGGVVQPGRSLRLSCAASGFTFSSYGMHWVRQAPGEGLEWVAVIWYDGTFKYYADSVKGRFTISRDNSKNTLSLLMNSLRAEDTAVYYCTRGGYYGSGSSFDYYYYGMDVWGQGTTVTVSS VL: EIVLTQSPATLSLSPGERATLSCRASQSVSSYLAWYQQKPGQAPRLLIYDASNRATGIPARFSGSGSGTDFTLTISSLEPEDFAVYYCQQRSNWPPVTFGQGTRLEIK	2.91e+09 M⁻¹	0.343 nM	0.000289 s⁻¹	842000 M⁻¹ s⁻¹
HuMab 017 (antibody of cell line hu-Mab<P-selectin>LC 1004-017, DSM ACC2642) (antibody, V domains shown, Human monoclonal antibody; also called antibody 017) VH: QPQLVQSGAEVKKPGASVKVSCKVSGNTLTELSMHWVRQAPGKGLEWMGGFDPENGEAIYAQKFQGRVTMTADTSTDTAYMDLSSLRSEDTAVYYCATDLAGGSDFYYYGLDVWGQGTTVTVSS VL: AIQLTQSPSSLSASVGDRVTITCRASQGISSALAWYQQKPGKAPKLLIYDASSLESGVPSRFSGSGSGTDFTLTISSLQPEDFATYYCQQFNSYPYTFGQGTKLEIK	5.59e+10 M⁻¹	0.0179 nM	1.39e-05 s⁻¹	779000 M⁻¹ s⁻¹
